Tested on: immature Mo-DCs
Assay: Endocytic activity (DQ-OVA uptake)
Assay type: cell-based, human
Design: key: (−) negligible; (+) low; (++) moderate; (+++) high
Details: functional assay
Experimental: To measure the phagocytic activity of iDCs, 2×10^5 cells/ml were resuspended in 100 μl of PBS and incubated with 4 μl of BODIPY FL-conjugated DQ-Ovalbumin (1 mg/ml, DQ-OVA, Molecular Probes, Leiden, Netherlands) at 37° C. or at 0° C. for 15 min. The incubations were stopped by adding 1 ml of cold FACS buffer. The cells were washed two times with cold FACS buffer and their fluorescence analyzed using a FACScalibur flow cytometer (Becton-Dickinson).

B1: C4BP (β^−): C4BP isoforms lacking beta chain: C4BP (α7β0) or C4BP (α6β0) (protein, UniProt P04003 49-597, looked up)
C4b-binding protein alpha …: NCGPPPTLSFAAPMDITLTETRFKTGTTLKYTCLPGYVRSHSTQTLTCNSDGEWVYNTFCIYKRCRHPGELRNGQVEIKTDLSFGSQIEFSCSEGFFLIGSTTSRCEVQDRGVGWSHPLPQCEIVKCKPPPDIRNGRHSGEENFYAYGFSVTYSCDPRFSLLGHASISCTVENETIGVWRPSPPTCEKITCRKPDVSHGEMVSGFGPIYNYKDTIVFKCQKGFVLRGSSVIHCDADSKWNPSPPACEPNSCINLPDIPHASWETYPRPTKEDVYVVGTVLRYRCHPGYKPTTDEPTTVICQKNLRWTPYQGCEALCCPEPKLNNGEITQHRKSRPANHCVYFYGDEISFSCHETSRFSAICQGDGTWSPRTPSCGDICNFPPKIAHGHYKQSSSYSFFKEEIIYECDKGYILVGQAKLSCSYSHWSAPAPQCKALCRKPELVNGRLSVDKDQYVEPENVTIQCDSGYGVVGPQSITCSGNRTWYPEVPKCEWETPEGCEQVLTGKRLMQCLPNPEDVKMALEVYKLSLEIEQLELQRDSARQSTLDKEL
Which “Endocytosis (DQ-OVA)” value does the source give for B1 here?
Its value is “+”.

Source: US10106589B2, “Compositions and methods for immunomodulation” (FUNDACIO INSTITUT D'INVESTIGACIO BIOMEDICA DE BELLVITGE …, priority 2011, dated 2018)
